Results: patent US20230002496A1 (STAIDSON BEIJING BIOPHARMACEUTICALS, published 2023)
Where two headings read alike, the source gives them in different places.

T1: human GM-CSFRα, full length on cells (human, UniProt P15509 23-400)
T1 sequence: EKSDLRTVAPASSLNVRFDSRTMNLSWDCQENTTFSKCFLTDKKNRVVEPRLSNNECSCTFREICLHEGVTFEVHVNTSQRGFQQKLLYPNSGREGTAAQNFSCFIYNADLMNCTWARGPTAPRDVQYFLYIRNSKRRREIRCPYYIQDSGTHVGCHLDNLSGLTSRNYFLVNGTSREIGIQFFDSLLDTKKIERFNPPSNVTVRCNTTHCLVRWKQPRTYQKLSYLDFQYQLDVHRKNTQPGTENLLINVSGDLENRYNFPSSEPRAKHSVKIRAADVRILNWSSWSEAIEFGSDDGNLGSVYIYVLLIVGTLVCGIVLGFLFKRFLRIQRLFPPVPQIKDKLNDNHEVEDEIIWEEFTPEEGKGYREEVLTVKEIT


Experiments:
[1] = biological target: T1, human GM-CSFRα, full length on cells; assay: cell-based or functional assay
[2] = biological target: T1, human GM-CSFRα, full length on cells; assay: cell-based or functional assay; remark: listed apart in the source

| IC50, TF-1 cell proliferation [1] | IC50, TF-1 cell proliferation [2] | Binder |
| --- | --- | --- |
| 0.0371 µg/mL |  | E35-VL93D-IG4 (antibody, IgG4, V domains shown) VH: QMQLVQSGAEVKKPGASVKVSCKVSGYTLTELSIHWVRQAPGKGLEWMGGFDPEDGETIYAQKFQGRVTMTGDTSTDTAYLELSSLRSEDTALYYCATGRYTSLATTYGFDYWGQGTLVTVSS VL: EIVMTQSPATLSLSPGERATLSCRASQSVSSYLAWYQQKPGQAPRLLIYGASSRATGIPDRFSGSGSGTDFTLTISRLEPEDFAVYYCQQYDDWPYTFGQGTKLEIK |
| 0.0569 µg/mL |  | E35-VH28H-IG4 (antibody, IgG4, V domains shown) VH: QMQLVQSGAEVKKPGASVKVSCKVSGYHLTELSIHWVRQAPGKGLEWMGGFDPEDGETIYAQKFQGRVTMTGDTSTDTAYLELSSLRSEDTALYYCATGRYTSLATTYGFDYWGQGTLVTVSS VL: EIVMTQSPATLSLSPGERATLSCRASQSVSSYLAWYQQKPGQAPRLLIYGASSRATGIPDRFSGSGSGTDFTLTISRLEPEDFAVYYCQQYDNWPYTFGQGTKLEIK |
|  | 0.156 µg/mL | E35-scFv LS31M (scFv, V domains shown) VH: QMQLVQSGAEVKKPGASVKVSCKVSGYTLTELSIHWVRQAPGKGLEWMGGFDPEDGETIYAQKFQGRVTMTGDTSTDTAYLELSSLRSEDTALYYCATGRYTSLATTYGFDYWGQGTLVTVSS VL: EIVMTQSPATLSLSPGERATLSCRASQSVSMYLAWYQQKPGQAPRLLIYGASSRATGIPDRFSGSGSGTDFTLTISRLEPEDFAVYYCQQYDNWPYTFGQGTKLEIK |
|  | 0.142 µg/mL | E35-scFv LQ27C (scFv, V domains shown) VH: QMQLVQSGAEVKKPGASVKVSCKVSGYTLTELSIHWVRQAPGKGLEWMGGFDPEDGETIYAQKFQGRVTMTGDTSTDTAYLELSSLRSEDTALYYCATGRYTSLATTYGFDYWGQGTLVTVSS VL: EIVMTQSPATLSLSPGERATLSCRASCSVSSYLAWYQQKPGQAPRLLIYGASSRATGIPDRFSGSGSGTDFTLTISRLEPEDFAVYYCQQYDNWPYTFGQGTKLEIK |
| 0.0431 µg/mL |  | E35-VH28H-VL30C-IG4 (antibody, IgG4, V domains shown) VH: QMQLVQSGAEVKKPGASVKVSCKVSGYHLTELSIHWVRQAPGKGLEWMGGFDPEDGETIYAQKFQGRVTMTGDTSTDTAYLELSSLRSEDTALYYCATGRYTSLATTYGFDYWGQGTLVTVSS VL: EIVMTQSPATLSLSPGERATLSCRASQSVCSYLAWYQQKPGQAPRLLIYGASSRATGIPDRFSGSGSGTDFTLTISRLEPEDFAVYYCQQYDNWPYTFGQGTKLEIK |
|  | 0.138 µg/mL | E35-scFv LQ27S (scFv, V domains shown) VH: QMQLVQSGAEVKKPGASVKVSCKVSGYTLTELSIHWVRQAPGKGLEWMGGFDPEDGETIYAQKFQGRVTMTGDTSTDTAYLELSSLRSEDTALYYCATGRYTSLATTYGFDYWGQGTLVTVSS VL: EIVMTQSPATLSLSPGERATLSCRASSSVSSYLAWYQQKPGQAPRLLIYGASSRATGIPDRFSGSGSGTDFTLTISRLEPEDFAVYYCQQYDNWPYTFGQGTKLEIK |
| 0.0307 µg/mL |  | E35-VH28E-IG4 (antibody, IgG4, V domains shown) VH: QMQLVQSGAEVKKPGASVKVSCKVSGYELTELSIHWVRQAPGKGLEWMGGFDPEDGETIYAQKFQGRVTMTGDTSTDTAYLELSSLRSEDTALYYCATGRYTSLATTYGFDYWGQGTLVTVSS VL: EIVMTQSPATLSLSPGERATLSCRASQSVSSYLAWYQQKPGQAPRLLIYGASSRATGIPDRFSGSGSGTDFTLTISRLEPEDFAVYYCQQYDNWPYTFGQGTKLEIK |
|  | 0.06 µg/mL | E35-scFv LS31T (scFv, V domains shown) VH: QMQLVQSGAEVKKPGASVKVSCKVSGYTLTELSIHWVRQAPGKGLEWMGGFDPEDGETIYAQKFQGRVTMTGDTSTDTAYLELSSLRSEDTALYYCATGRYTSLATTYGFDYWGQGTLVTVSS VL: EIVMTQSPATLSLSPGERATLSCRASQSVSTYLAWYQQKPGQAPRLLIYGASSRATGIPDRFSGSGSGTDFTLTISRLEPEDFAVYYCQQYDNWPYTFGQGTKLEIK |
| 0.0163 µg/mL |  | E35-VH28H-VL93L-IG4 (antibody, IgG4, V domains shown) VH: QMQLVQSGAEVKKPGASVKVSCKVSGYHLTELSIHWVRQAPGKGLEWMGGFDPEDGETIYAQKFQGRVTMTGDTSTDTAYLELSSLRSEDTALYYCATGRYTSLATTYGFDYWGQGTLVTVSS VL: EIVMTQSPATLSLSPGERATLSCRASQSVSSYLAWYQQKPGQAPRLLIYGASSRATGIPDRFSGSGSGTDFTLTISRLEPEDFAVYYCQQYDLWPYTFGQGTKLEIK |
|  | 0.078 µg/mL | E35-scFv LS31A (scFv, V domains shown) VH: QMQLVQSGAEVKKPGASVKVSCKVSGYTLTELSIHWVRQAPGKGLEWMGGFDPEDGETIYAQKFQGRVTMTGDTSTDTAYLELSSLRSEDTALYYCATGRYTSLATTYGFDYWGQGTLVTVSS VL: EIVMTQSPATLSLSPGERATLSCRASQSVSAYLAWYQQKPGQAPRLLIYGASSRATGIPDRFSGSGSGTDFTLTISRLEPEDFAVYYCQQYDNWPYTFGQGTKLEIK |
|  | 0.117 µg/mL | E35-scFv LQ27R (scFv, V domains shown) VH: QMQLVQSGAEVKKPGASVKVSCKVSGYTLTELSIHWVRQAPGKGLEWMGGFDPEDGETIYAQKFQGRVTMTGDTSTDTAYLELSSLRSEDTALYYCATGRYTSLATTYGFDYWGQGTLVTVSS VL: EIVMTQSPATLSLSPGERATLSCRASRSVSSYLAWYQQKPGQAPRLLIYGASSRATGIPDRFSGSGSGTDFTLTISRLEPEDFAVYYCQQYDNWPYTFGQGTKLEIK |
| 0.0268 µg/mL |  | E35-VH28E-VL30L-IG4 (antibody, IgG4, V domains shown) VH: QMQLVQSGAEVKKPGASVKVSCKVSGYELTELSIHWVRQAPGKGLEWMGGFDPEDGETIYAQKFQGRVTMTGDTSTDTAYLELSSLRSEDTALYYCATGRYTSLATTYGFDYWGQGTLVTVSS VL: EIVMTQSPATLSLSPGERATLSCRASQSVLSYLAWYQQKPGQAPRLLIYGASSRATGIPDRFSGSGSGTDFTLTISRLEPEDFAVYYCQQYDNWPYTFGQGTKLEIK |
|  | 0.128 µg/mL | E35-scFv LQ27L (scFv, V domains shown) VH: QMQLVQSGAEVKKPGASVKVSCKVSGYTLTELSIHWVRQAPGKGLEWMGGFDPEDGETIYAQKFQGRVTMTGDTSTDTAYLELSSLRSEDTALYYCATGRYTSLATTYGFDYWGQGTLVTVSS VL: EIVMTQSPATLSLSPGERATLSCRASLSVSSYLAWYQQKPGQAPRLLIYGASSRATGIPDRFSGSGSGTDFTLTISRLEPEDFAVYYCQQYDNWPYTFGQGTKLEIK |
|  | 0.139 µg/mL | E35-scFv LS31P (scFv, V domains shown) VH: QMQLVQSGAEVKKPGASVKVSCKVSGYTLTELSIHWVRQAPGKGLEWMGGFDPEDGETIYAQKFQGRVTMTGDTSTDTAYLELSSLRSEDTALYYCATGRYTSLATTYGFDYWGQGTLVTVSS VL: EIVMTQSPATLSLSPGERATLSCRASQSVSPYLAWYQQKPGQAPRLLIYGASSRATGIPDRFSGSGSGTDFTLTISRLEPEDFAVYYCQQYDNWPYTFGQGTKLEIK |
|  | 0.117 µg/mL | E35-scFv LS31Q (scFv, V domains shown) VH: QMQLVQSGAEVKKPGASVKVSCKVSGYTLTELSIHWVRQAPGKGLEWMGGFDPEDGETIYAQKFQGRVTMTGDTSTDTAYLELSSLRSEDTALYYCATGRYTSLATTYGFDYWGQGTLVTVSS VL: EIVMTQSPATLSLSPGERATLSCRASQSVSQYLAWYQQKPGQAPRLLIYGASSRATGIPDRFSGSGSGTDFTLTISRLEPEDFAVYYCQQYDNWPYTFGQGTKLEIK |
|  | 0.135 µg/mL | E35-scFv LQ27E (scFv, V domains shown) VH: QMQLVQSGAEVKKPGASVKVSCKVSGYTLTELSIHWVRQAPGKGLEWMGGFDPEDGETIYAQKFQGRVTMTGDTSTDTAYLELSSLRSEDTALYYCATGRYTSLATTYGFDYWGQGTLVTVSS VL: EIVMTQSPATLSLSPGERATLSCRASESVSSYLAWYQQKPGQAPRLLIYGASSRATGIPDRFSGSGSGTDFTLTISRLEPEDFAVYYCQQYDNWPYTFGQGTKLEIK |
| 0.0296 µg/mL |  | E35-VH28H-VL30L-IG4 (antibody, IgG4, V domains shown) VH: QMQLVQSGAEVKKPGASVKVSCKVSGYHLTELSIHWVRQAPGKGLEWMGGFDPEDGETIYAQKFQGRVTMTGDTSTDTAYLELSSLRSEDTALYYCATGRYTSLATTYGFDYWGQGTLVTVSS VL: EIVMTQSPATLSLSPGERATLSCRASQSVLSYLAWYQQKPGQAPRLLIYGASSRATGIPDRFSGSGSGTDFTLTISRLEPEDFAVYYCQQYDNWPYTFGQGTKLEIK |
|  | 0.069 µg/mL | E35-scFv LS31R (scFv, V domains shown) VH: QMQLVQSGAEVKKPGASVKVSCKVSGYTLTELSIHWVRQAPGKGLEWMGGFDPEDGETIYAQKFQGRVTMTGDTSTDTAYLELSSLRSEDTALYYCATGRYTSLATTYGFDYWGQGTLVTVSS VL: EIVMTQSPATLSLSPGERATLSCRASQSVSRYLAWYQQKPGQAPRLLIYGASSRATGIPDRFSGSGSGTDFTLTISRLEPEDFAVYYCQQYDNWPYTFGQGTKLEIK |
|  | 0.12 µg/mL | E35-scFv LQ27V (scFv, V domains shown) VH: QMQLVQSGAEVKKPGASVKVSCKVSGYTLTELSIHWVRQAPGKGLEWMGGFDPEDGETIYAQKFQGRVTMTGDTSTDTAYLELSSLRSEDTALYYCATGRYTSLATTYGFDYWGQGTLVTVSS VL: EIVMTQSPATLSLSPGERATLSCRASVSVSSYLAWYQQKPGQAPRLLIYGASSRATGIPDRFSGSGSGTDFTLTISRLEPEDFAVYYCQQYDNWPYTFGQGTKLEIK |
|  | 0.106 µg/mL | E35-scFv LS31H (scFv, V domains shown) VH: QMQLVQSGAEVKKPGASVKVSCKVSGYTLTELSIHWVRQAPGKGLEWMGGFDPEDGETIYAQKFQGRVTMTGDTSTDTAYLELSSLRSEDTALYYCATGRYTSLATTYGFDYWGQGTLVTVSS VL: EIVMTQSPATLSLSPGERATLSCRASQSVSHYLAWYQQKPGQAPRLLIYGASSRATGIPDRFSGSGSGTDFTLTISRLEPEDFAVYYCQQYDNWPYTFGQGTKLEIK |
